{"source": "paper doi:10.1101/2021.04.18.440036", "about": "(bioRxiv, 2021)", "binders": {"B1": {"name": "cAb29 Fab (Fab, V domains shown)", "VH": "QVQLQQSGAELVKPGASVKMSCKASGYIFTNYNMHWVQQTPGQGLEWIGAIYPRTGDTSYNQKFKGKATLTADKSSSTAYMQLSSLTSEDSAVYYCARDGFAYWGQG", "VL": "DIQMTQTTSSLSASLGDRVTISCRASQDISNYLNWYQQKPDGTVKLLIYYTSRLHSEVPSRFSGSGSGTDYSLTISNLEEEDIATYFCQQGKTLPWTFGGG"}}, "biological_target": "protective antigen (PA) prepore (Bacillus anthracis V770-NP1-R (ATCC …, UniProt P13423))", "sequence (P13423 whole entry, looked up)": "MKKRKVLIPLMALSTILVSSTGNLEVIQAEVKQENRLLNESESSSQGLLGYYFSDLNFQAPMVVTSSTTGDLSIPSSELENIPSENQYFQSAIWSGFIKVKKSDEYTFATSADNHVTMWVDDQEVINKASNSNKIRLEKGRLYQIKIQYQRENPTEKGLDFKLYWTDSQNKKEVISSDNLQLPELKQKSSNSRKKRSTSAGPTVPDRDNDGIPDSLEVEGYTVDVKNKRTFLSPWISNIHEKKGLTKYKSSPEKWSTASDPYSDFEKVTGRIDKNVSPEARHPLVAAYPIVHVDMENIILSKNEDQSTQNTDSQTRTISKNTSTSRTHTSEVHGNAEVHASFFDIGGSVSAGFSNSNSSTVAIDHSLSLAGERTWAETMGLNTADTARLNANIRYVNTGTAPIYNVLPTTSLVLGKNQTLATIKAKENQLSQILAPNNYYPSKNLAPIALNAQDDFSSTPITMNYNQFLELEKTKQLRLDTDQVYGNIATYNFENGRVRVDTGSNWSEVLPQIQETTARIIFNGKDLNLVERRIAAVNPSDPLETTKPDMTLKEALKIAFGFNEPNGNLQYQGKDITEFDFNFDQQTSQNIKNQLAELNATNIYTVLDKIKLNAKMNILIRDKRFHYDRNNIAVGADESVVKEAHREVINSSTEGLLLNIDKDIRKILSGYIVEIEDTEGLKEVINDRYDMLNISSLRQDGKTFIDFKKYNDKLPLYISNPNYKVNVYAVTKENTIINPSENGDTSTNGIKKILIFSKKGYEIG", "test": "cryo-EM structure", "data": [{"binder": "B1", "values": [{"measurement": "binding result", "result": "binds"}]}]}
